Biological target: BETA-2/E47 heterodimer (reticulocyte lysate) (UniProt Q60430;P15923-2 Q60430:1-355,P15923-2:1-651)
Assay: EMSA; BETA-2 and E-47 cDNAs
Conditions: label: 32P

Chain of BETA-2/E47 heterodimer (reticulocyte lysate) (Q60430 whole entry, chain 1 of 2): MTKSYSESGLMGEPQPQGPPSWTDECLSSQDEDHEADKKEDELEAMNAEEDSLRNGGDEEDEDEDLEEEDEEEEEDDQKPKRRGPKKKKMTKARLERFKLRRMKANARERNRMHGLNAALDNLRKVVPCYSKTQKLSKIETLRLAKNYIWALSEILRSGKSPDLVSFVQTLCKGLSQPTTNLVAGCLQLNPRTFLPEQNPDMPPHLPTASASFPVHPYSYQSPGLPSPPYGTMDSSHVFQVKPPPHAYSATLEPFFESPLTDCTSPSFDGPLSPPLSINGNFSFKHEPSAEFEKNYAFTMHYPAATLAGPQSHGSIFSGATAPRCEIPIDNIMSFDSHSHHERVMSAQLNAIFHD
Chain of BETA-2/E47 heterodimer (reticulocyte lysate) (P15923 other isoform, or with tags, fused parts or gaps, chain 2 of 2): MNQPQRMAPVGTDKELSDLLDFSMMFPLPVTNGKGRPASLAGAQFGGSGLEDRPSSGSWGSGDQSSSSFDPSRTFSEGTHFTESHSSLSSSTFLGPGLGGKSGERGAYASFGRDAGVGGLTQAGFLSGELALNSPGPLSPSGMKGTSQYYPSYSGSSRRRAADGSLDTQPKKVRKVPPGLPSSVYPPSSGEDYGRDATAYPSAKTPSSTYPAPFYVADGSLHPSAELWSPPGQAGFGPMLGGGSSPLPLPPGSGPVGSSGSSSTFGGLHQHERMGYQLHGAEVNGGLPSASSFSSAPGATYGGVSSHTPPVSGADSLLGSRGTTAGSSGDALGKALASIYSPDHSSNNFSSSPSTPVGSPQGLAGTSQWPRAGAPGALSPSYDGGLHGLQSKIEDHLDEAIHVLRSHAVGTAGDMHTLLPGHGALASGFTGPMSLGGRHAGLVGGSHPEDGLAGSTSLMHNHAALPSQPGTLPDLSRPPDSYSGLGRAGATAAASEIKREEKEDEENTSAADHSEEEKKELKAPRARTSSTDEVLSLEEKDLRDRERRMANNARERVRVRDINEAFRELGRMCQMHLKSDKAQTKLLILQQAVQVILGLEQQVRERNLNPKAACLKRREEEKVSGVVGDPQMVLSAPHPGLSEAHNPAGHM

B1: B element WT (dsDNA)
DNA 1: TCAGTGACAGATGGAGTCCT
DNA 2: AGGACTCCATCTGTCACTGA
B1: binds.

From patent US5969210, “Methods for the characterization of compounds which stimulate STF-1 expression in pancreatic islet cells” (Research Development Foundation)
